Molecular target: prostate specific antigen (Homo sapiens)

IC50 (48 hour exposure), Prostate DuPro (trace PSA) [nM] | IC50 (48 hour exposure), Prostate LnCAP (positive PSA) [nM] | Substance
3500 | 810 | Analog 210 (Ac-Hyp-Ser-Ser-Chg-Gln-Ser-Ser-Pro-O-(CH2)3-acylfulvene) (peptide)
– | > 20000 | Analog 215 (Illudin S-Pro-Ser-Ser-Gln-Chg-Ser-Ser-Hyp-Ac) (peptide)
280 | 190 | Analog 216 (Illudin M-Pro-Ser-Ser-Gln-Chg-Ser-Ser-Hyp-Ac) (peptide)
